{"source": "patent US20080241125A1", "about": "(Dana-Farber, published 2008)", "target": "T1, purified IKKγ (human, UniProt Q9Y6K9 1-419, limits assumed)", "T1 construct": "also called NEMO", "T1 sequence (Q9Y6K9 whole entry, the tested form may be a part)": "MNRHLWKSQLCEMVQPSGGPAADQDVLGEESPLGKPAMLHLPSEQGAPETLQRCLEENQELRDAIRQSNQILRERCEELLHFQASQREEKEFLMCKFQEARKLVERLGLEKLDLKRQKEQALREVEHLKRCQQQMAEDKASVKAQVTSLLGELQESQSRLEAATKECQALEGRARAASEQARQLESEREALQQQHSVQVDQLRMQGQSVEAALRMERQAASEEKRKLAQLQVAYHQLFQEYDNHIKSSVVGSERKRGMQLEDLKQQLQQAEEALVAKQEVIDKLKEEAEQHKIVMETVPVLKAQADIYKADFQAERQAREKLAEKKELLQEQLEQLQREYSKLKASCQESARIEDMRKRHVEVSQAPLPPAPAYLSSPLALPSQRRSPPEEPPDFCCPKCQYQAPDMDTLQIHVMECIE", "assay": "GST pull-down of purified IKKγ with GST-MUC1-CD fragments on glutathione beads, anti-IKKγ immunoblot (FIG. 5C)", "from_the_text": "FIG. 5C is a pair of photographs of immunoblots. […] The precipitates were immunoblotted (IB) with anti-IKKγ antibody. […] The molecular weights of proteins (as indicated on the left of the photographs) are expressed as kilodaltons (kDa).", "note": "No end group written: not given here.", "data": [{"binder": "CQCRRKNYGQLDIFPARDTYHPMSEYPTYHTHGRYVPPSSTDRSP (other, cysteine pairing not given here; also: GST fusion, GST sequence and linker not given here, not shown: glutathione S-transferase (GST) tag)", "note": "[GST-MUC1-CD(1-45)]", "values": [{"measurement": "binding result", "result": "no binding"}]}]}
